Data on three molecules can be found in US20210395381A1.

The target of this test is recombinant mouse TfR-1 (mouse) (UniProt Q62351). The test is described as follows: phage ELISA. (In general: In an ELISA, binding on a coated surface is turned into a signal by an enzyme label.)

Changes are numbered by the printed parent chain.

recombinant mouse TfR-1 (mouse), sequence (Q62351 89-763 limits assumed): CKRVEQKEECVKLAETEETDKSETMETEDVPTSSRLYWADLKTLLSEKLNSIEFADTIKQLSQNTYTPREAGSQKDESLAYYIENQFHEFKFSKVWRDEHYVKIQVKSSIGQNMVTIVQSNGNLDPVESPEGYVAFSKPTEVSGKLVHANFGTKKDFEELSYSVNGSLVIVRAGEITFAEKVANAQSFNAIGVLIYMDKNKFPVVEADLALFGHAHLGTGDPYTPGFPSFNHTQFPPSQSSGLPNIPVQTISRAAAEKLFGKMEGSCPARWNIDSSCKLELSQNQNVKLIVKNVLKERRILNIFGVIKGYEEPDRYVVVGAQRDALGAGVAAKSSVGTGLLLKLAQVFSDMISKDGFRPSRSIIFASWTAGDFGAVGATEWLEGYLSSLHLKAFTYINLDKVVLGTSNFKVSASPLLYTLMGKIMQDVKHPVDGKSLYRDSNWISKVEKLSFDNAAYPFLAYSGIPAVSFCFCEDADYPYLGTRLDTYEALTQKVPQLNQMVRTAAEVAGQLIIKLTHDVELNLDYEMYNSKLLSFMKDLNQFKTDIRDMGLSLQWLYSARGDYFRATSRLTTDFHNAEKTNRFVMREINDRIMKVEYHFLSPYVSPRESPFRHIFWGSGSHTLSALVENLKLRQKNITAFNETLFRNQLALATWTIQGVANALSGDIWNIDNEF

B1: Clone 8.17 (VNAR)
VNAR: ARVDQTPQTITKETGESLTINCVLRDSNCALPSTYWYRKKSGSTNEESISKGGRYVETVNSGSKSFSLRINDLTVEDSGTYRCKVIAYRKSIVRGCNYRKHDVYGDGTAVTVNA
In the case of B1, the A450 was determined as 0.091 A450.

B2: Clone 8.137 (VNAR)
VNAR: B1 VNAR with Y88Q, R89L, K90S, V93L, R99F, K100G, H101K
Turning to B2, the A450 was found to be 0.046 A450.

B3: Clone 8.97 (VNAR)
VNAR: B1 VNAR with Y88Q, R89L, K90S, V93L, R99N, K100I, H101D
For B3, the A450 was 0.053 A450.
